Data set [1] concerns Putidaredoxin W106A mutant. Description: continuous-wave EPR. The note with it: other: continuous-wave EPR (high-spin to low-spin conversion of the heme).
The test system of data set [2] is Putidaredoxin D38A mutant. Description: continuous-wave EPR. The note with it: other: continuous-wave EPR (high-spin to low-spin conversion of the heme).

From paper PMC9749489 come the findings set out here.

Regarding “MTSL-P450cam (P450cam labelled with MTSL at S48C and S190C)”, the “conversion from the high-spin to low-spin state” value in data set [1] and in data set [2] was “approximately 50% conversion” throughout.
